In US20220372160A1 one finds Kd data, which are given here for 1 substance.

What is called Kd is the constant that tells how readily two partners part at equilibrium.

This test deals with recombinant mouse CD39 (mouse) (UniProt P55772). Put plainly: BLI, Duha59 amine-coupled to AR2G biosensor, recombinant mouse CD39 as analyte, 1:1 model.
Chain of recombinant mouse CD39 (mouse) (P55772 38-478 limits assumed): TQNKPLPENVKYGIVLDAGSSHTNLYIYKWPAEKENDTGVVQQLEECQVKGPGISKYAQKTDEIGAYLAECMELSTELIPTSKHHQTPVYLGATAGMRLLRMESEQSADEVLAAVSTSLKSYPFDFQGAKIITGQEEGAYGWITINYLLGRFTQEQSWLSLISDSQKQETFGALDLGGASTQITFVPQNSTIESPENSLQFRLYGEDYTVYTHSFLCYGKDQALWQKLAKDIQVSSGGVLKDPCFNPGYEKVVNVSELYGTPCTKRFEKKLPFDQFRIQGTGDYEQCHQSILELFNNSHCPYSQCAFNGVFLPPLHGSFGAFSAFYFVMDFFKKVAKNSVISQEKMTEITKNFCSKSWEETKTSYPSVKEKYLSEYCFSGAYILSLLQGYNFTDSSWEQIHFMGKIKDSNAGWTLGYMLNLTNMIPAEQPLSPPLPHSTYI

Regarding “rat anti-mouse CD39 Duha59 clone (antibody)”, the Kd came out at 1.09 nM.
